{"source": "patent US20060247419A1", "about": "“Translocation dependent complementation for drug screening” (BioImage A/S, priority 2002, published 2006)", "key": {"[1]": {"tested_on": "translocation of β-catenin to the nucleus (GSK3β inhibited by lithium ions)", "assay": "TDCzip: β-catenin translocation dependent complementation with leucine zippers, CHO[ps1736+ps1758]", "type": "cell-based, chinese hamster", "conditions": "5 mM LiCl for 16 hours", "description": "In this example, complementary halves of GFP are fused separately to β-catenin and to histone H2B and co-expressed within cells. The β-catenin construct is expected to be localised entirely in the cell cytoplasm at a low level, its concentration effectively controlled by the activity of the protein kinase GSK3β. The H2B construct will be localised in the nuclei of cells by the highly basic histone moeity. […] However, when GSK3β is inhibited by lithium ions, the cytoplasmic level of the β-catenin construct is expected to increase in the cytoplasm, and to translocate in significant fashion to the nucleus. Both constructs have been engineered to contain a leucine zipper domain. […] The development of nuclear fluorescence in lithium-treated cells therefore effectively reports on the translocation of β-catenin to the nucleus. […]\nAfter 10 to 12 days culture in the continuous presence of the selection agents, the resulting cell lines were judged to be stably transfected. For fluorescence microscopy, aliquots of cells were transferred to Lab-Tek chambered cover glasses (Nalge Nunc International, Naperville USA) and allowed to adhere for at least 24 hours to reach about 80% confluence. […] Image collection, subsequent measurement and analysis of fluorescence intensity were all controlled by IPLab Spectrum for Windows software (Scanalytics, Fairfax, Va. USA). […]"}, "[2]": {"tested_on": "β-catenin translocation to the nucleus and interaction with TCF4 (GSK3β inhibited by lithium ions)", "assay": "TIDC: β-catenin translocation and β-catenin:TCF4 interaction dependent complementation, CHO[ps1706+ps1810]", "type": "cell-based, chinese hamster", "conditions": "5 mM LiCl for 16 hours", "description": "In this example, complementary halves of GFP are fused separately to β-catenin and also to histone H2B coupled to the β-catenin-binding fragment of the transcriptional co-activator TCF4. Both constructs are then co-transfected and expressed within mammalian cells. The β-catenin construct is expected to be localised entirely in the cell cytoplasm at a low level, its concentration effectively controlled by the activity of the protein kinase GSK3β. The H2B-TCF4 construct will be localised in the nuclei of cells by the highly basic histone moeity. […] The development of nuclear fluorescence in lithium-treated cells therefore effectively reports on the combined result of translocation of β-catenin to the nucleus and the subsequent interaction between β-catenin and the β-catenin binding domain of TCF4. […]\nAfter 10 to 12 days culture in the continuous presence of the selection agents, the resulting cell lines were judged to be stably transfected. For fluorescence microscopy, aliquots of cells were transferred to Lab-Tek chambered cover glasses (Nalge Nunc International, Naperville USA) and allowed to adhere for at least 24 hours to reach about 80% confluence. Images were collected using a Zeiss LSM410 inverted confocal fluorescence microscope (Zeiss, Jena, Germany) using x40 (oil immersion) objective. […]"}, "[3]": {"tested_on": "translocation of β-catenin to the nucleus (GSK3β inhibited by lithium; FKBP:FRB induced by rapamycin)", "assay": "TDCrap: β-catenin translocation dependent complementation with rapamycin-inducible FKBP:FRB, CHO ps1809 with ps1827", "type": "cell-based, chinese hamster", "conditions": "5 mM LiCl for 16 hours", "quoted_text": "In this example, complementary halves of GFP are fused separately to β-catenin and to histone H2B and co-expressed within cells. The β-catenin construct is expected to be localised entirely in the cell cytoplasm at a low level, its concentration effectively controlled by the activity of the protein kinase GSK3β. The H2B construct will be localised in the nuclei of cells by the highly basic histone moeity. […] Both constructs have also been engineered to contain inducible interaction domains. […] The H2B construct includes FRB, which is the 93 amino acid portion of FRAP, the large PI3Kinase homolog FRAP (also known as mTOR or RAFT).\nPlasmids ps1809 with ps1827 were co-transfected into chinese hamster ovary cells (CHO) using the transfection agent FuGENE™ 6 (Boehringer Mannheim Corp, USA) according to the method recommended by the suppliers. […]\nAfter 10 to 12 days culture in the continuous presence of the selection agents, the resulting cell lines were judged to be stably transfected. For fluorescence microscopy, aliquots of cells were transferred to Lab-Tek chambered cover glasses (Nalge Nunc International, Naperville USA) and allowed to adhere for at least 24 hours to reach about 80% confluence. […] Images were collected using a Zeiss LSM410 inverted confocal fluorescence microscope (Zeiss, Jena, Germany) using x40 (oil immersion) objective. […]"}, "[4]": {"molecular_target": "FKBP and FRB (FKBP binding part of FRAP) (Homo sapiens, UniProt P42345+P62942)", "assay": "Rapamycin-inducible FKBP:FRB split-EYFP complementation, CHO-hIR [PS1767+PS1768] cells", "type": "cell-based", "conditions": "1 μM rapamycin", "protocol": "Probes were co-transfected in pairs into CHO-hIR cells (supra), PS1769 with PS1771 and PS1767 with PS1768, using the transfection agent FuGENE™ 6 (Boehringer Mannheim Corp, USA) according to the method recommended by the suppliers. Cells were cultured in growth medium (HAM's F12 nutrient mix with Glutamax-1, 10% foetal bovine serum (FBS), 100 μg penicillin-streptomycin mixture ml^−1 (GibcoBRL, supplied by Life Technologies, Denmark)). Transfected cells were cultured in this medium, with the addition of two selection agents appropriate to the plasmids being used, being 1 mg/ml zeocin plus 0.5 mg/mlG418 sulphate. Cells were cultured at 37° C. in 100% humidity and conditions of normal atmospheric gases supplemented with 5% CO2.\nAfter 10 to 12 days culture in the continuous presence of the selection agents, the resulting cell lines were judged to be stably transfected. For fluorescence microscopy, aliquots of cells were transferred to Lab-Tek chambered cover glasses (Nalge Nunc International, Naperville USA) and allowed to adhere for at least 24 hours to reach about 80% confluence. Images were routinely collected using a Nikon Diaphot 300 inverted fluorescence microscope (Nikon Corp., Tokyo, Japan) using x20 (dry) and/or x40 (oil immersion) objectives and coupled to a Orca ER charged coupled device (CCD) camera (Hammamatsu Photonics K.K., Hammamatsu City, Japan). […]"}, "[5]": {"molecular_target": "FRB-CtermEYFP173 (human; Aequorea victoria) (UniProt P42345)", "assay": "cell-based or functional assay"}, "[6]": {"molecular_target": "FKBP-CtermEYFP173 (human; Aequorea victoria) (UniProt P62942)", "assay": "cell-based or functional assay"}}, "data": [{"compound": "[Cl-].[Li+]", "note": "[LiCl, lithium chloride]", "values": [{"measurement": "cells with GFP-bright nuclei", "setting": "[1]", "value": "a fraction of these cells display GFP-bright nuclei"}, {"measurement": "number of cells containing fluorescent GFP (nuclear)", "setting": "[2]", "value": "the number of cells containing fluorescent GFP increases greatly"}, {"measurement": "number of cells containing fluorescent GFP (nuclear)", "setting": "[3]", "value": "the number of cells containing fluorescent GFP increases greatly"}]}, {"compound": "CO[C@H]1C[C@@H]2CC[C@@H](C)[C@@](O)(O2)C(=O)C(=O)N2CCCC[C@H]2C(=O)O[C@H]([C@H](C)C[C@@H]2CC[C@@H](O)[C@H](OC)C2)CC(=O)[C@H](C)/C=C(\\C)[C@@H](O)[C@@H](OC)C(=O)[C@H](C)C[C@H](C)/C=C/C=C/C=C/1C", "note": "[rapamycin]", "values": [{"measurement": "proportion of cells with significantly greater EYFP fluorescence", "setting": "[4]; after 4 hours", "value": "approximately 40%"}, {"measurement": "proportion of the cell population responding", "setting": "[4]; after 16 hours", "value": "approximately 70%"}]}, {"compound": "NtermE[F64L]YFP172-FKBP (from UniProt P62942 1-108)", "values": [{"measurement": "EC50 of FK506 in competition with 100 nM rapamycin, EYFP fluorescence/cell, 16 hours, 'black' group", "setting": "[5]", "value": 1200, "unit": "nM"}]}, {"compound": "NtermE[F64L]YFP172-FRB (from UniProt P42345 2025-2114)", "values": [{"measurement": "EC50 of FK506 in competition with 100 nM rapamycin, EYFP fluorescence/cell, 16 hours, 'mid to low-green' group", "setting": "[6]", "value": 1200, "unit": "nM"}, {"measurement": "EC50 of rapamycin, dose-response of EYFP fluorescence at 7 and 30 hours, 'black' FACS group", "setting": "[6]", "value": 100, "unit": "nM"}, {"measurement": "EC50 of rapamycin, dose-response of EYFP fluorescence at 7 and 30 hours, 'medium to low-green' FACS group", "setting": "[6]", "value": 250, "unit": "nM"}, {"measurement": "half-time for development of cellular EYFP fluorescence after 3 µM rapamycin", "setting": "[6]", "value": 5, "unit": "h"}, {"measurement": "increase in EYFP fluorescence with rapamycin over the unstimulated value, 'medium to low-green' and 'black' FACS groups", "setting": "[6]", "value": "> 20", "unit": "fold"}, {"measurement": "share of cells responding 16 hours after 1 µM rapamycin", "setting": "[6]", "value": "70 % of cells"}, {"measurement": "share of cells with EYFP fluorescence before rapamycin (t=0)", "setting": "[6]", "value": "< 5 % of cells"}, {"measurement": "share of cells with greater EYFP fluorescence 4 hours after 1 µM rapamycin", "setting": "[6]", "value": "40 % of cells"}]}]}
